US20120232127A1, “REGULATION OF NEUROTRANSMITTER RELEASE THROUGH ANION CHANNELS” (KOREA INSTITUTE OF SCIENCE AND TECHNOLOGY, priority 2008, published 2012)

Key:
mBest1 [1] = target: T1, mBest1 (Mus musculus, UniProt O88870); assay: Whole cell patch clamp of mBest1-expressing HEK293T cells; assay type: cell-based; design: the full-length mBest1 was cloned from both astrocyte and testis cDNAs and transiently expressed in HEK293T cells; expressed in transfected cells; host or cells: HEK293T cells (ATCC); settings: HEK293T cells transfected with mBest1 cDNA
T1 sequence (O88870 1-551): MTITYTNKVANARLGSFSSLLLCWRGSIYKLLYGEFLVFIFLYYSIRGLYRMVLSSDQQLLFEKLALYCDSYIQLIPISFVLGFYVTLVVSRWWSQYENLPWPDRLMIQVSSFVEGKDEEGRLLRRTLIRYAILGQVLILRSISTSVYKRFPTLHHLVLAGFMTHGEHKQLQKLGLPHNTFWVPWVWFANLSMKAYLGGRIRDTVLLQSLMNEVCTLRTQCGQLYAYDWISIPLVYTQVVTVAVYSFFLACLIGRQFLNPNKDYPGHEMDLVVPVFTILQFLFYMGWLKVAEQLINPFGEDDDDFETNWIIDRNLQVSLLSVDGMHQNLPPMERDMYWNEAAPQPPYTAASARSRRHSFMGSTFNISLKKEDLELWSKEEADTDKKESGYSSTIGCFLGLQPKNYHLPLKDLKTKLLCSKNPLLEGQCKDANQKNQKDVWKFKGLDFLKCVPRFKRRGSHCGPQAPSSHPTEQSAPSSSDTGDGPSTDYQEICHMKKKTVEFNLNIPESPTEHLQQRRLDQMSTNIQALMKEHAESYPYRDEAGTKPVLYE
Description: In order to express mBest1 in mammalian cells, an mBest1 full-length fragment from pGEM-T easy plasmid (6.65 kb, Promega) was subcloned into pcDNA 3.1 (Invitrogen) by HindIII site and NotI site. The plasmid constructs were transfected into HEK293T cells (ATCC) using Effectene transfection reagent (Qiagen). To carry out whole cell patch clamp recordings, 1.5˜2 μg of plasmid, which was obtained by cloning mBest1 in cDNA extracted from mouse brain or cultured astrocytes, and then, subcloning into pcDNA3.1 plasmid (Invitrogen), plus pEGFP-N1 (Clontech) were used to transfect one 35 mm culture dish. One day after transfection, cells were replated onto glass coverslips for electrophysiological recording. Transfected cells were identified by EGFP fluorescence and used for patch clamp experiments within 24-36 hrs.
(§1) Patch pipettes which have 3-6MΩ of resistance are filled with the standard intracellular solution. Current voltage curves were established by applying 100- or 200-ms-duration voltage ramps from −100 to +100 mV. The ramp duration was 10 s. […] The concentration of free [Ca^2+]i in the solution was determined (Kuruma, A. & Hartzell, H. C. Bimodal control of a Ca(^2+)-activated Cl(−) channel by difference Ca(^2+) signals. J Gen Physiol 115, 59-80 (2000), which is hereby incorporated by reference for all purposes as if fully set forth herein). […]

[2] = system: intracellular Ca2+ in cultured astrocytes; assay: Ca2+ imaging of TFLLR-induced [Ca2+]i transient in cultured astrocytes; assay type: cell-based, mouse; settings: shRNA expressing astrocytes, sniffer patch, TFLLR
Description: The External solution was comprised of (in mM) 150 NaCl, 10 HEPES, 3 KCl, 2 CaCl2, 2 MgCl2, 5.5 glucose, at pH 7.3 (˜320 mOsm). For voltage clamp recordings, the internal solution contained 25 μg/ml gramicidin D and (in mM) 75 Cs2SO4, 10 NaCl, 0.1 CaCl2, and 10 HEPES, at pH 7.1 (˜310 mOsm). For current clamp recordings, the internal solution contained 25 μg/ml gramicidin D and (in mM) 75 K2SO4, 10 KCl, 0.1 CaCl2, and 10 HEPES, at pH 7.1 (˜310 mOsm). Pipette resistances ranged from 5 to 8 MΩ. For perforated patch clamp, it took 20 to 30 min to achieve acceptable perforation, with final series resistances ranging from 15 to 40 MΩ.
To test if activation of PAR1 by its specific agonist (e.g., TFLLR) causes any change in membrane conductance that might contribute to glutamate release from astrocytes, the whole cell currents and intracellular Ca^2+ responses in cultured astrocytes under gramicidin-D perforated patch configuration were simultaneously recorded (FIG. 1a). This technique minimized dialysis of intracellular ions.

mBest1 [3] = target: T1, mBest1; assay: CAAC current in astrocytes expressing shRNA; assay type: cell-based; design: endogenous in cells; host or cells: cultured mouse cortical astrocytes
Description: For plasmid-based shRNA expression, the following complementary oligonucleotides were annealed and inserted into the HindIII/BglII sites of pSUPER-GFP vector (Oligo Engine):
The efficacy of the construct to interfere with mBest1 expression was tested against heterologously expressed mBest1 in HEK293T cells (ATCC) by measuring specific CAAC currents. For lentivirus-based shRNA expression, lentiviral vector containing mBest1 gene was constructed by inserting synthetic double-strand oligonucleotides 5′-[…] […]-3′ (SEQ ID NO: 30) into pstI-XbaI restriction enzyme sites of shLenti2.4 CMV lentiviral vector (Macrogen) and verified by sequencing. Scrambled oligonucleotides inserted shLenti construct (Macrogen) was used as control. […]
as §1, with “solution.” for “solution. Current voltage curves were established by applying 100- or 200-ms-duration voltage ramps from −100 to +100 mV. The ramp duration was 10 s.”

B1: mBest1 shRNA: mBest1-specific short hairpin RNA, SEQ ID NO: 3 and 4 (lentiviral: SEQ ID NO: 30), nucleotides 563-582 of mBest1 (nucleic acid)
chain 1: GATCCCCTTGCCAACTTGTCAATGAATTCAAGAGATTCATTGACAAGTTGGCAATTTTTA
chain 2: GGGAACGGTTGAACAGTTACTTAAGTTCTCTAAGTAACTGTTCAACCGTTAAAAATTCGA
mBest1 [1]
  knock-down of mBest1 channel: specific and efficient knock-down
[2]
  increase in astrocytic intracellular Ca2+: unaffected
mBest1 [3]
  CAAC current in astrocyte: 49.7±8.3 pA
